Positions count from the first letter of the chain named.
Experiments:
Test in all cases: SPR, KD relative to WT C2;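 note: biacore SPR at 37 °C, anti-C2 mAbs captured via immobilised goat anti-human IgG, C2 alanine or serine surface mutants as analytes, 1:1 model fitted, double-referenced sensograms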
[1] = target: T1, human C2 E267A (human, UniProt P06681 21-752)
T1 sequence: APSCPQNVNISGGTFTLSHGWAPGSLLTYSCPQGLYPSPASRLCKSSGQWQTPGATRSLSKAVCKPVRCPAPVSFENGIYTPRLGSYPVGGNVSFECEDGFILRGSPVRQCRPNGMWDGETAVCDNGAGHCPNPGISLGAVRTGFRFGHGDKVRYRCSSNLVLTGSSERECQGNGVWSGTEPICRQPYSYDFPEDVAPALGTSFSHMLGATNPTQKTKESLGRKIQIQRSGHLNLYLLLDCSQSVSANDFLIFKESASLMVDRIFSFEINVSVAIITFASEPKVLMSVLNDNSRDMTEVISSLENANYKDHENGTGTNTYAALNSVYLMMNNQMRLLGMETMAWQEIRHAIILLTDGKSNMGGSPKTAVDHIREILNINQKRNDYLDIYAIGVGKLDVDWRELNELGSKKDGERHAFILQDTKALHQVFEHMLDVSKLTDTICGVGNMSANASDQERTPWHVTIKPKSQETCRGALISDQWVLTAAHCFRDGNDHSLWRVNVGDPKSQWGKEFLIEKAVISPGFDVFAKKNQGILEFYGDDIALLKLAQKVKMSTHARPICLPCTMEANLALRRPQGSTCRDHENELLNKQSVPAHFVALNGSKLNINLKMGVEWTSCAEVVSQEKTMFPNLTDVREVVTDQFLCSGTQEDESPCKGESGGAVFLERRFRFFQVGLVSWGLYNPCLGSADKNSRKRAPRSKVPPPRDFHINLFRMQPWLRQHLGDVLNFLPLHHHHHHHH

[2] = target: T2, human C2 V465A (human, UniProt P06681 21-752)
T2 sequence: T1 sequence with A247E, V445A

[3] = target: T3, human C2 G432A (human, UniProt P06681 21-752)
T3 sequence: T1 sequence with A247E, G412A

[4] = target: T4, human C2 N380A (human, UniProt P06681 21-752)
T4 sequence: T1 sequence with A247E, N360A

B1: RF16-226 (antibody, human IgG4 S228P, lambda)
heavy: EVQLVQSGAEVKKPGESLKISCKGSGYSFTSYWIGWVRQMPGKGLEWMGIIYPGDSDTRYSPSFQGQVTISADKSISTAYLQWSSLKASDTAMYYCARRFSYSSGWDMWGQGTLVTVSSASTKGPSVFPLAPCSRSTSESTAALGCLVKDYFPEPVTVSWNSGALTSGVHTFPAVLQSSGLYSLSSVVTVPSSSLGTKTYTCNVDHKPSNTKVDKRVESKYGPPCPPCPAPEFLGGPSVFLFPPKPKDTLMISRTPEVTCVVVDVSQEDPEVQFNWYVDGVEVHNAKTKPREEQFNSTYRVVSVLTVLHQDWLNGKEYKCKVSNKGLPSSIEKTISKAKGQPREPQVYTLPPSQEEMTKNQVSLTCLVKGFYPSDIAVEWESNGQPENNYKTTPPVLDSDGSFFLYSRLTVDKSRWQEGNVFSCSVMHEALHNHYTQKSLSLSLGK
light: SYELTQPPSVSVSPGQTARITCSGDALTSKYVAWYQQKSGLAPLLVIYEDTRRPSGIPAKFSGSSSGSVATLTISGAHGDDEADYYCYSTDASGHQRVFGGGTKLTVLSQPKAAPSVTLFPPSSEELQANKATLVCLISDFYPGAVTVAWKADGSPVKAGVETTKPSKQSNNKYAASSYLSLTPEQWKSHRSYSCQVTHEGSTVEKTVAPTECS
notes: pH-dependent anti-C2 antibody from a phage display library; also called WT
**Q.** For B1, which Fold diff [1] is on record?
**A.** Its Fold diff is 1 fold.

**Q.** What about the Fold diff [2] of the same binder?
**A.** The Fold diff was 2 fold.

**Q.** What about the Fold diff [3] of the same binder?
**A.** The Fold diff was 1 fold.

**Q.** What about the Fold diff [4] of the same binder?
**A.** The Fold diff was 2 fold.

Source: patent publication US20220332804A1 (CSL INNOVATION, published 2022)
